# System: MS2 coat protein
# Test: apparent KD of MS2 coat protein; designed switch direction (-1 OFF switch, 1 ON switch): -1; higher = weaker reporter binding
# Summary of the method: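 The buffer was Tris-HCl pH 7.5 with KCl, MgCl2, BSA, DTT, tRNA and Tween-20. In it, SNAP-549-labelled MS2 coat protein was titrated in doubling steps from 0.7 or 1.5 nM to 3 µM over chip-bound RNA switches transcribed by stalled E. coli RNA polymerase on Illumina chips. Apparent KD is the per-design median over clusters of curve fits to normalised fluorescence.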
# [1] = Eterna round: R95, input ligand: FMN 200 uM
# [2] = Eterna round: R95, input ligand: microRNA oligo, concentration not stated
# [3] = Eterna round: R95, input ligand: none
# [4] = input ligand: microRNA oligo, concentration not stated
Sequence,apparent KD of MS2 coat protein [2] [nM],apparent KD of MS2 coat protein (input ligand: FMN 200 uM) [nM],apparent KD of MS2 coat protein (input ligand: none) [nM],other results
"UUUAAUUUUUUUUUUUUACAAGCUUUUUGCUCGUCUUAUACAUGAGGAUCACCCAUGUGAAUGAGGGAUAAAUUAUC [JMF 39] (puzzle: Sensor v3, turn-off variant 2)",14.3,–,–,apparent KD of MS2 coat protein [1]: 13.5 nM; apparent KD of MS2 coat protein [3]: 11.9 nM
"UUUAAUUUUUUUUUUUUACAAGCUUUUUGCUCGUCUUAUACAUGAGGAUCACCCAUGUGAAUGGGAAAUGAAUUAUC [JMF 96] (puzzle: Sensor v3, turn-off variant 2)",268,–,–,apparent KD of MS2 coat protein [1]: 112 nM; apparent KD of MS2 coat protein [3]: 132 nM
"UUUAAUUUUUUUUUUUUACAAGCUUUUUGCUCGUCUUAUACAUGAGGAUCACCCAUGUGGGUAGGAGGUAAAUUAUC [JMF 72] (puzzle: Sensor v3, turn-off variant 2)",50.4,–,–,apparent KD of MS2 coat protein [1]: 32.5 nM; apparent KD of MS2 coat protein [3]: 35.5 nM
"UUUAAUUUUUUUUUUUUACAAGCUUUUUGCUCGUCUUAUACAUGAGGAUCACCCAUGUGGGUGAAAGAUAGAUUGUC [JMF's solution 3] (puzzle: Sensor v3, turn-off variant 2)",20.4,–,–,apparent KD of MS2 coat protein [1]: 87.2 nM; apparent KD of MS2 coat protein [3]: 35.8 nM
"UUUACAAGCUAUUGAUCCCACAUGAGGAUCACCCAUGUUGCUGCCGUGAGGUAGCUUUUAACAAUUGCUCGUCUUAU [JL TOV1 3.38] (Eterna round: R97, puzzle: Sensor, turn-off variant 1)",–,424,570,–
"UUUACAAGCUUAAGAUCCCACAUGAGGAUCACCCAUGUUGCUGCCGGUGACGGUAGCAUAACUUAUGCUCGUCUUAU [JL TOV1 3.60] (Eterna round: R97, puzzle: Sensor, turn-off variant 1)",–,177,188,–
"UUUAGUGGUAAGGAUAUCCUUGAGAAAGAAAGAGGAGAAGGUACCACAUGAGGAUCACCCAUGUGGCUCUUUUA [jl-ex6-4.58 Nando mod] (Eterna round: R97, puzzle: Exclusion 6)",–,32.7,18.2,–
UUUAGUUCAGGAUAUGUAGAUUUUAACAUGAGGAUCACCCAUGUAGAUCCUGAAUUAACUACAGAAGGGAACAUUG [Exclusion 5: 2:b] (puzzle: Exclusion 5),18.2,–,–,apparent KD of MS2 coat protein [1]: 50.1 nM; apparent KD of MS2 coat protein [3]: 16.5 nM
"UUUAUAAUUUCAAUCUUCGCUGGCAAACUUACGCCAGCCACAUGAGGAUCACCCAUGUUUUUUGUUCGUUUUAUUCU [Xeinzarace] (puzzle: Sensor v3, turn-off variant 2)",49.8,–,–,apparent KD of MS2 coat protein [1]: 18.8 nM; apparent KD of MS2 coat protein [3]: 22.6 nM
"UUUCAUCAUGUAGGAUAUGCGUGGCGAAGCUAUGCAGAAGGACAUGAGGAUCACCCAUGUUCUAGCGUCUGCGUACAGAUGCUA [JL ENG1 1.35] (Eterna round: R96, puzzle: Exclusion NG 1)",–,226,52.4,apparent KD of MS2 coat protein [4]: 45.1 nM
"UUUCGGCAUGUAGGAUAUGGGUCCGAUUAGGAUUUAGAAGGACAUGAGGAUCACCCAUGUGCAUUUAAUUGGUCAUUACCUUUU [EXclNG1-LROPPY10] (Eterna round: R96, puzzle: Exclusion NG 1)",–,–,–,apparent KD of MS2 coat protein [4]: 46.5 nM
"UUUCUACAUGUAGGAUAUGCGUGGCGAAGCUAUGCAGAAGGACAUGAGGAUCACCCAUGUUUUAGCGUCUGCGUACAGAUGCGU [JL ENG1 1.49] (Eterna round: R96, puzzle: Exclusion NG 1)",–,60.9,20.6,apparent KD of MS2 coat protein [4]: 16.2 nM
"UUUCUGUGAGGAUAUCAGUAGUAAAUAAAUAAAAUUACUACUGAGAAGGCACAUGAGGAUCACCCAUGUUCCUU [salish99_ex3_r3_093] (Eterna round: R96, puzzle: Exclusion 4)",–,35.1,16.5,apparent KD of MS2 coat protein [4]: 12.9 nM
UUUCUGUGAGGAUAUCAGUAGUAAAUAAAUAAAAUUACUACUGAGAAGGCACAUGAGGAUCACCCAUGUUCCUU [salish99_ex3_r3_093] (puzzle: Exclusion 4),13.1,–,–,–
"UUUGGGCCUGUGAGGAUAUCGGGUUUGAAAGGGCCCGAGAAGGCACAUGAGGAUCACCCAUGUAAGGGCCCGGG [-32.7, -30.6 kcal, A 23%, 5a-5abis] (Eterna round: R97, puzzle: Brourd's mod of Exclusion 4)",–,17.3,19.5,–
"UUUGGUUUGCGAGGAUAUGCUUUUAGUAAGUUAGCAGAAGGCGCGUUACAUAGAACCUCUUGUUACAUGAGGAUCACCCAUGUU [JR_ExcNG1_Sub037] (Eterna round: R96, puzzle: Exclusion NG 1)",–,–,–,apparent KD of MS2 coat protein [4]: 77.3 nM
UUUUAACAUGAGGAUCACCCAUGUGAGGAUAUCGAAAUUUAUAUUAAUAUUAAUAUUUCGAGAAGGCACAUUUU [JMF 25] (puzzle: Exclusion 1),125,–,–,–
UUUUAACAUGAGGAUCACCCAUGUGAGGAUAUCGAAAUUUAUAUUAAUAUUAAUUAAUCGAGAAGGCACAUUUU [JMF 28] (puzzle: Exclusion 1),97.4,–,–,–

Sequence,apparent KD of MS2 coat protein [2] [nM],apparent KD of MS2 coat protein (input ligand: FMN 200 uM) [nM],apparent KD of MS2 coat protein (input ligand: none) [nM],other results
UUUUAACAUGAGGAUCACCCAUGUGAGGAUAUCGAAAUUUAUAUUAAUAUUAUUAUAACGAGAAGGCACAUUUU [JMF 39] (puzzle: Exclusion 1),62.2,–,–,–
UUUUAACAUGAGGAUCACCCAUGUGAGGAUAUCGAAAUUUAUAUUAAUAUUAUUUAUACGAGAAGGCACAUUUU [JMF 46] (puzzle: Exclusion 1),64.9,–,–,–
UUUUAACAUGAGGAUCACCCAUGUGAGGAUAUCGAAAUUUAUAUUUAUAUUAAUAUAACGAGAAGGCACAUUUU [JMF 79] (puzzle: Exclusion 1),58.2,–,–,–
UUUUAACAUGAGGAUCACCCAUGUGAGGAUAUCGAAAUUUAUAUUUAUAUUAAUUAAUCGAGAAGGCACAUUUU [JMF 84] (puzzle: Exclusion 1),150,–,–,–
"UUUUACAAGCCAGAUCCUCACAUGAGGAUCACCCAUGUGCUCGUCUGUUUUCGCACUAUCACGUUUGUGAUAGUGCU [Level Boss var2-10] (puzzle: Sensor v3, turn-off variant 1)",12.9,–,–,apparent KD of MS2 coat protein [1]: 162 nM; apparent KD of MS2 coat protein [3]: 288 nM
"UUUUACAAGCUAAGAUCCUACAUGAGGAUCACCCAUGUGGUCCGGUGACGUGAGUCACCGGACUUAGCUCGUCUUGC [salish99_S_TOV1_R5_088] (Eterna round: R97, puzzle: Sensor, turn-off variant 1)",–,36.2,43.7,–
UUUUACGUAGGAUAUACAUUUUUUUUAUUAUUUUCAUUAUUACAUGAGGAUCACCCAUGUAGAAGGACGAUUUU [My Design] (puzzle: Exclusion 2),25,–,–,–
"UUUUAGCAAGCGAGAAUUAACAUGAGGAUCACCCAUGUGCAUCCAGAAUUACUUUUAGAACAAGCUCGUCUUAUAUA [JR_STOV1_v2_Sub081] (Eterna round: R97, puzzle: Sensor, turn-off variant 1)",–,353,401,–
"UUUUGACAUGAGGAUCACCCAUGUGAGGAUAUGGCUUGUGGCGCGUCUGUGUGGCGGGUUAGAAGGCGCGUGCG [-24.6, -21.7 kcal, A 16%] (Eterna round: R97, puzzle: Exclusion 1)",–,30.8,38.3,–
"UUUUGCUCAGGAUAUACAUGAGGAUCACCCAUGUAUAUUGAAGAUAAUACAUGGGAAUGUAGAAGGGAGCUCAU [Omei Ex3 Pseudoloop 19] (Eterna round: R97, puzzle: Exclusion 3)",–,73.5,156,–
"UUUUGGCAGGCAAUUAUUAACAUGAGGAUCACCCAUGUGCAUCCAAAAUUACUUUUAGAUCAAGCUCGUCUUAUAUA [JR_STOV1_Sub087] (Eterna round: R97, puzzle: Sensor, turn-off variant 1)",–,29.9,35.1,–
"UUUUGGCAGGUAAUUAUUAACAUGAGGAUCACCCAUGUGCAUCCAAAAUUACUUUUAGAUCAAGCUCGUCUUAUAUA [JR_STOV1_Sub088] (Eterna round: R97, puzzle: Sensor, turn-off variant 1)",–,34,35.2,–
"UUUUGUUUGCGAGGAUAUGCUUUUAGUAAGUUAGCAGAAGGCGCGUUACAUAGAACCUCUUGUUACAUGAGGAUCACCCAUGUU [JR_ExcNG1_Sub036] (Eterna round: R96, puzzle: Exclusion NG 1)",–,179,168,apparent KD of MS2 coat protein [4]: 110 nM
"UUUUUAAAUGAAGGAUAUACUUAACAUGAGGAUCACCCAUGUGGUGUUGUGAGUGAGUGAGUUUAGUAGAAGGUCAAUUCUUUU [JMF's solution 86] (Eterna round: R96, puzzle: Exclusion NG 2)",–,619,334,apparent KD of MS2 coat protein [4]: 300 nM
UUUUUACAUGAGGAUCACCCAUGUCAGGAUAUGUUUAUAUUUUAUUAUUUUAUUUUUUACAGAAGGGACUAUUA [My solution] (puzzle: Exclusion 1),123,–,–,–
"UUUUUAGAUGAAGGAUAUACUUAACAUGAGGAUCACCCAUGUGGUGUUGUGAGUGAGUGAGUUUAGUAGAAGGUCAAUUAUUUU [JMF's solution 21] (Eterna round: R96, puzzle: Exclusion NG 2)",–,187,260,apparent KD of MS2 coat protein [4]: 151 nM
"UUUUUAGUGCUUUUUAAGUACAUGAGGAUCACCCAUGUACUUGUCUGGUGGUCCGGACAAGCUUUUUGCUCGUCUAC [Sensor v3 - turn-off variant 1 - 2] (puzzle: Sensor v3, turn-off variant 1)",30.5,–,–,apparent KD of MS2 coat protein [1]: 49.5 nM; apparent KD of MS2 coat protein [3]: 54.3 nM

# — the supplement of paper PMC9170038
